Source: patent publication US20090036382A1, “TGF-Beta Modulators and Use Thereof” (Universita' Degli Studi Di Padova, priority 2006, published 2009)

What was measured:
[1] = test system: TGF-β activated p15 promoter; assay: p15-lux luciferase reporter in MEF primary cultures from wild type and emilin1 -/- mice; type: cell-based, mouse; details: FIG. 3A, 3B
Excerpt: MEF primary cultures were transfected with plasmid p15-lux (p15-luciferase) (Li et al., 1995) driving transcription of the luciferase marker gene under control of the p15^INK4B gene promoter. Since the p15 promoter is activated by TGF-β (i.e. p15 is a TGF-β target gene), the presence of the growth factor induces higher luciferase levels, which can be measured with a luminometer.

pro TGF-β1 = assay: CAGA12-lux luciferase reporter in HEK293T cells co-transfected with pro TGF-β1 vector; type: cell-based, human; details: for Effect on luciferase expression induced by pro TGF-β1: CAGA12-lux, co-transfection with pro TGF-β1 vector, FIG. 2B, 2C
Excerpt: • The construct for emilin 1 expression was engineered in pCS2 vector (Rupp R. A. et al., 1994, Genes Dev 8, 1311-1323) (for a physical map of the vector, see the site faculty.washington.edu/rtmoon/pcs2+.html) as described (Zanetti M. et al., 2004, Mol Cell Biol 24, 638-650); the vector used for proTGF-β expression in MEF and HEK293T cells is pCDNA3.1 (Invitrogen). Vectors containing the coding sequence for human pro TGF-β are described in Young and Murphy-Ullrich, 2004 (Young and Murphy-Ullrich, 2004, J Biol Chem 279, 38032-38039). The human pro TGF-β cDNA sequence is reported in the data bank (NP_000660; protein 000651). • The vector for Furin/SPC 1 expression is pCDNA3.1 (Invitrogen) • p15 and CAGA 12 promoter fragments are described in Jonk L. J. et al., 1998, J Biol Chem 273, 21145-21152 […]. • Constructs containing Flag sequences are described in Young G. D and Murphy-Ullrich J E, 2004, J Biol Chem 279, 38032-38039. • Constructs containing the Flag epitope (e.g. Flag-EMI-domain-GPI) were prepared as described in Chubet R G et al. Biotechniques 1996; 20(1):136-141 and detected by anti-Flag antibody (Kodak Inc.). • Constructs containing the GPI anchor were prepared as described in the Manual “Current Protocols in Cell Biology” Howard R. Petty Wayne State University, Detroit, Mich.; Juan S. Bonifacino, Mary Dasso, Joe B. Harford, Jennifer Lippincott-Schwartz, and Kenneth M. Yamada (eds.), Copyright C 2003 John Wiley & Sons, Inc. (GPI-anchor). In the construct Flag-EMI domain-GPI, the Flag sequence was inserted at the N-terminus after the signal peptide, while the GPI-anchor sequence was placed at the COOH-terminal end. • The construct emilin 1-KDEL was obtained by inserting the KDEL coding sequence described by Munro S., and Pelham, H. R., 1987, Cell 48, 899-907 upstream the emilin 1 STOP codon. • The construct containing the type II TGF-β receptor with HA epitope was described in Wrana J. L. et al., 1994, Nature 370, 341-347. • supplier of the drugs used: SP600125 (Calbiochem), SB431542 (Tocris). • Purified recombinant LAP and TGF-β1 proteins were purchased from (R&D Systems)
To verify how emilin or the EMI domain can contrast TGF-β1 activity independently from receptor binding, HEK293T cells were transfected with a construct coding luciferase placed under control of a TGF-β activated promoter: CAGA12-lux (Jonk et al., 1998) alone or in combination with a emilin1 expression vector (500 ng) as shown in FIG. 2B. After transfection, cells were treated (black bar) or not treated (white bar) with 5 ng/ml recombinant TGF-1 (lanes 1 and 2). Column bars from 3 to 6 report luciferase expression values in experiments with cells co-transfected with the expression vector for emilin1 (or EMI-domain or emilin1ΔEMI) alone (white bars) or in combination with the vector encoding pro TGF-β1 (black bars). Values show the mean±st. dev.
As further validation of the above observations, HEK293T cells were cotransfected with expression plasmids carrying the cDNAs shown in the summary scheme above the figure, along with CAGA12-lux and CMV-lacZ constructs, and luciferase expression levels were measured.

[2] = target: T1, pro TGF-β1 (human TGF-β1 precursor) (human, UniProt P01137 30-390); assay: co-immunoprecipitation with anti-Flag antibodies from HEK293T cell extracts, western blot with anti-LAP antibodies
T1 construct: Expressed from pCDNA3.1 in HEK293T cells; also called TGF-β precursor; Flag-proTGF-β1
T1 sequence (P01137 30-390): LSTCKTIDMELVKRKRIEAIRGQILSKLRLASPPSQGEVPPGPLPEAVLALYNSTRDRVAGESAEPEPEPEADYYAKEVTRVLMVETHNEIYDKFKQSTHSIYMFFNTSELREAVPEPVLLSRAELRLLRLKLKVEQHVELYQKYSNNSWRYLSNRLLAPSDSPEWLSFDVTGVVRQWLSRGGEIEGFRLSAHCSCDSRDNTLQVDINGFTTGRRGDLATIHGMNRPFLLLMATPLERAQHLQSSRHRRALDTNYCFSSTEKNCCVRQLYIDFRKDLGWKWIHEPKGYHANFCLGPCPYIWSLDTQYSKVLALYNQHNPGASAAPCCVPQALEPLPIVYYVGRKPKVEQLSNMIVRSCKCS
Experimental: To verify whether TGF-β or its precursor is the emilin target, HEK293T cells were transfected with a plasmid encoding pro TGF-β1 alone or with an expression plasmid for Flag-EMI domain-GPI. Cell extracts were prepared and subjected to the immunoprecipitation procedure with anti-Flag antibodies, as described in example 2. Immunoprecipitates were subjected to SDS-PAGE and Western blotting (WB) with anti-LAP antibodies.

For `NC(=O)c1ccc(-c2nc(-c3ccc4c(c3)OCO4)c(-c3ccccn3)[nH]2)cc1` [SB431542], the “p15-lux transcriptional response in normal versus emilin1 -/- MEF cells after drug treatment” value [1] was “a similar response is measured in normal and mutant cells”.

“emilin 2: emilin family protein, GenBank NP-114437” was tested, and the “Effect on luciferase expression induced by pro TGF-β1” value (from here on “Effect”) (pro TGF-β1) was “antagonize TGF-β activity at the of pro-TGF-β level”.

B1: Flag-EMI-domain-GPI (emilin-1 EMI domain tagged with the Flag epitope and bound to a GPI anchor) (other, not shown: small tags and cut ends; large carriers)
chain: RHRNWCAYVVTRTVSCVLEDGVETYVKYQPCAWGQPQCPQSIMYRRFLRPRYRVAYKTVTDMEWRCCQGYGGDDCAE
modifications: GPI (glycosylphosphatidylinositol) anchor at the COOH-terminal end
notes: Expressed in transfected HEK293T cells and tested in cell extracts; also called EMI-domain-GPI-anchor; GPI anchored EMI domain
B1: binds [2].

B2: emilin1ΔEMI: emilin protein lacking the EMI-domain, used as control (protein)
chain: ASYPPRGFSLYTGSSGALSPGGPQAQIAPRPASSPAPALGPASSTPRPLARPARPNLSGSSAGSPLSGLGGEGPGESEKVQQLEEQVQSLTKELQGLRGVLQGLSGRLAEDVQRAVETAFNGRQQPADAAARPGVHETLNEIQHQLQLLDTRVSTHDQELGHLNNHHGGSSSSGGSRAPAPASAPPGPSEELLRQLEQRLQESCSVCLAGLDGFRRQQQEDRERLRAMEKLLASVEERQRHLAGLAVGRRPPQECCSPELGRRLAELERRLDVVAGSVTVLSGRRGTELGGAAGQGGHPPGYTSLASRLSRLEDRFNSTLGPSEEQEESWPGAPGGLSHWLPAARGRLEQLGGLLANVSGELGGRLDLLEEQVAGAMQACGQLCSGAPGEQDSQVSEILSALERRVLDSEGQLRLVGSGLHTVEAAGEARQATLEGLQEVVGRLQDRVDAQDETAAEFTLRLNLTAARLGQLEGLLQAHGDEGCGACGGVQEELGRLRDGVERCSCPLLPPRGPGAGPGVGGPSRGPLDGFSVFGGSSGSALQALQGELSEVILSFSSLNDSLNELQTTVEGQGADLADLGATKDRIISEINRLQQEATEHATESEERFRGLEEGQAQAGQCPSLEGRLGRLEGVCERLDTVAGGLQGLREGLSRHVAGLWAGLRETNTTSQMQAALLEKLVGGQAGLGRRLGALNSSLQLLEDRLHQLSLKDLTGPAGEAGPPGPPGLQGPPGPAGPPGSPGKDGQEGPIGPPGPQGEQGVEGAPAAPVPQVAFSAALSLPRSEPGTVPFDRVLLNDGGYYDPETGVFTAPLAGRYLLSAVLTGHRHEKVEAVLSRSNQGVARVDSGGYEPEGLENKPVAESQPSPGTLGVFSLILPLQAGDTVCVDLVMGQLAHSEEPLTIFSGALLYGDPELEHA
B2 was tested, and the “Effect” value (pro TGF-β1) was “showed no effect on pro TGF-β”.

B3: emilin 1-KDEL: emilin 1 with KDEL sequence inserted upstream the STOP codon; retained intracellularly, not secreted (protein)
chain: ASYPPRGFSLYTGSSGALSPGGPQAQIAPRPASRHRNWCAYVVTRTVSCVLEDGVETYVKYQPCAWGQPQCPQSIMYRRFLRPRYRVAYKTVTDMEWRCCQGYGGDDCAESPAPALGPASSTPRPLARPARPNLSGSSAGSPLSGLGGEGPGESEKVQQLEEQVQSLTKELQGLRGVLQGLSGRLAEDVQRAVETAFNGRQQPADAAARPGVHETLNEIQHQLQLLDTRVSTHDQELGHLNNHHGGSSSSGGSRAPAPASAPPGPSEELLRQLEQRLQESCSVCLAGLDGFRRQQQEDRERLRAMEKLLASVEERQRHLAGLAVGRRPPQECCSPELGRRLAELERRLDVVAGSVTVLSGRRGTELGGAAGQGGHPPGYTSLASRLSRLEDRFNSTLGPSEEQEESWPGAPGGLSHWLPAARGRLEQLGGLLANVSGELGGRLDLLEEQVAGAMQACGQLCSGAPGEQDSQVSEILSALERRVLDSEGQLRLVGSGLHTVEAAGEARQATLEGLQEVVGRLQDRVDAQDETAAEFTLRLNLTAARLGQLEGLLQAHGDEGCGACGGVQEELGRLRDGVERCSCPLLPPRGPGAGPGVGGPSRGPLDGFSVFGGSSGSALQALQGELSEVILSFSSLNDSLNELQTTVEGQGADLADLGATKDRIISEINRLQQEATEHATESEERFRGLEEGQAQAGQCPSLEGRLGRLEGVCERLDTVAGGLQGLREGLSRHVAGLWAGLRETNTTSQMQAALLEKLVGGQAGLGRRLGALNSSLQLLEDRLHQLSLKDLTGPAGEAGPPGPPGLQGPPGPAGPPGSPGKDGQEGPIGPPGPQGEQGVEGAPAAPVPQVAFSAALSLPRSEPGTVPFDRVLLNDGGYYDPETGVFTAPLAGRYLLSAVLTGHRHEKVEAVLSRSNQGVARVDSGGYEPEGLENKPVAESQPSPGTLGVFSLILPLQAGDTVCVDLVMGQLAHSEEPLTIFSGALLYGDPELEHAKDEL
With B3 the “Luciferase expression stimulated by transfected pro TGF-β” value (pro TGF-β1; CAGA12-lux and CMV-lacZ, FIG. 6C) was “abolishes its inhibitory action on the effects of pro TGF-β”.

B4: multimerin 2: emilin family protein produced by endothelial cells, GenBank NP—079032 (protein)
chain: QASSTSLSDLQSSRTPGVWKAEAEDTGKDPVGRNWCPYPMSKLVTLLALCKTEKFLIHSQQPCPQGAPDCQKVKVMYRMAHKPVYQVKQKVLTSLAWRCCPGYTGPNCEHHDSMAIPEPADPGDSHQEPQDGPVSFKPGHLAAVINEVEVQQEQQEHLLGDLQNDVHRVADSLPGLWKALPGNLTAAVMEANQTGHEFPDRSLEQVLLPHVDTFLQVHFSPIWRSFNQSLHSLTQAIRNLSLDVEANRQAISRVQDSAVARADFQELGAKFEAKVQENTQRVGQLRQDVEDRLHAQHFTLHRSISELQADVDTKLKRLHKAQEAPGTNGSLVLATPGAGARPEPDSLQARLGQLQRNLSELHMTTARREEELQYTLEDMRATLTRHVDEIKELYSESDETFDQISKVERQVEELQVNHTALRELRVILMEKSLIMEENKEEVERQLLELNLTLQHLQGGHADLIKYVKDCNCQKLYLDLDVIREGQRDATRALEETQVSLDERRQLDGSSLQALQNAVDAVSLAVDAHKAEGERARAATSRLRSQVQALDDEVGALKAAAAEARHEVRQLHSAFAALLEDALRHEAVLAALFGEEVLEEMSEQTPGPLPLSYEQIRVALQDAASGLQEQALGWDELAARVTALEQASEPPRPAEHLEPSHDAGREEAATTALAGLARELQSLSNDVKNVGRCCEAEAGAGAASLNASLHGLHNALFATQRSLEQHQRLFHSLFGNFQGLMEANVSLDLGKLQTMLSRKGKKQQKDLEAPRKRDKKEAEPLVDIRVTGPVPGALGAALWEAGSPVAFYASFSEGTAALQTVKFNTTYINIGSSYFPEHGYFRAPERGVYLFAVSVEFGPGPGTGQLVFGGHHRTPVCTTGQGSGSTATVFAMAELQKGERVWFELTQGSITKRSLSGTAFGGFLMFKT
B4 was tested, and the “Effect” value (pro TGF-β1) was “antagonize TGF-β activity at the of pro-TGF-β level”.
